# B1: CACACA_site1453 (dsDNA)
# DNA 1: ATATTATGTGATTGTGCACACTGGAGATTTTTTTTA
# DNA 2: TAAAAAAAATCTCCAGTGTGCACAATCACATAATAT
# B2: CACACA_site4748 (dsDNA)
# DNA 1: GCCTTTTAGTATTTCACACACGTAAATGAGTATATC
# DNA 2: GATATACTCATTTACGTGTGTGAAATACTAAAAGGC
# B3: CACACA_site377 (dsDNA)
# DNA 1: AGGTAGAAAAAAGACACACACATTATGTATATATAT
# DNA 2: ATATATATACATAATGTGTGTGTCTTTTTTCTACCT
# B4: CACACA_site6321 (dsDNA)
# DNA 1: AAATTAATTAAATATACACACATATATAGATATATA
# DNA 2: TATATATCTATATATGTGTGTATATTTAATTAATTT
# B5: CACACA_site8016 (dsDNA)
# DNA 1: TTAGGTAGAAAAAAGACACACACATTATATATATAT
# DNA 2: ATATATATATAATGTGTGTGTCTTTTTTCTACCTAA
# B6: CACACA_site3507 (dsDNA)
# DNA 1: TATATAAACCCGTACACACACATATATGTATATATA
# DNA 2: TATATATACATATATGTGTGTGTACGGGTTTATATA
# B7: CACACA_site2570 (dsDNA)
# DNA 1: AAAAGATAATTATGCACACACACACCCCCACCCAAC
# DNA 2: GTTGGGTGGGGGTGTGTGTGTGCATAATTATCTTTT
# B8: CACACA_site337 (dsDNA)
# DNA 1: AGCAGACACCAACACACACACATATATATATATATA
# DNA 2: TATATATATATATATGTGTGTGTGTTGGTGTCTGCT
# B9: CACACA_site407 (dsDNA)
# DNA 1: ATATTATATTATATAACACACATTTTTCATAACACT
# DNA 2: AGTGTTATGAAAAATGTGTGTTATATAATATAATAT
# B10: CACACA_site1517 (dsDNA)
# DNA 1: TATGAAATTATAATTACACACAGGAAAATAAAATGT
# DNA 2: ACATTTTATTTTCCTGTGTGTAATTATAATTTCATA
# B11: CACACA_site3424 (dsDNA)
# DNA 1: GATGAGGACAAACACACACACATAAGTTGATACATA
# DNA 2: TATGTATCAACTTATGTGTGTGTGTTTGTCCTCATC
# B12: CACACA_site254 (dsDNA)
# DNA 1: TTTAATTATAAGATAACACACAAAAAAAATAAAATA
# DNA 2: TATTTTATTTTTTTTGTGTGTTATCTTATAATTAAA
# B13: CACACA_site2379 (dsDNA)
# DNA 1: ACATAGCAATGTTTCACACACAAGAAAAAATACAAT
# DNA 2: ATTGTATTTTTTCTTGTGTGTGAAACATTGCTATGT
# B14: CACACA_site9081 (dsDNA)
# DNA 1: TTTTACTAAATATATACACACATTATACATATATAT
# DNA 2: ATATATATGTATAATGTGTGTATATATTTAGTAAAA
# B15: CACACA_site7314 (dsDNA)
# DNA 1: CAATGTTAACATATTACACACATATGTATTTATAAC
# DNA 2: GTTATAAATACATATGTGTGTAATATGTTAACATTG
# B16: CACACA_site6268 (dsDNA)
# DNA 1: AACATATTTATATACACACACATATTTATATGAAAT
# DNA 2: ATTTCATATAAATATGTGTGTGTATATAAATATGTT
# B17: CACACA_site1529 (dsDNA)
# DNA 1: AACTATAAAAAAAATACACACATTACCAAAAATATA
# DNA 2: TATATTTTTGGTAATGTGTGTATTTTTTTTATAGTT
# B18: CACACA_site8829 (dsDNA)
# DNA 1: TATGTAAAAAATTTAACACACACATATATATATATA
# DNA 2: TATATATATATATGTGTGTGTTAAATTTTTTACATA
# B19: CACACA_site3334 (dsDNA)
# DNA 1: ATTTTATTTTTTCACACACACATATATATATATATA
# DNA 2: TATATATATATATATGTGTGTGTGAAAAAATAAAAT
# B20: CACACA_site3513 (dsDNA)
# DNA 1: CAATTACGCAGGAATGCACACAATAATAAAAAAAAT
# DNA 2: ATTTTTTTTATTATTGTGTGCATTCCTGCGTAATTG
# B21: CACACA_site6753 (dsDNA)
# DNA 1: GAAGTAATTTCATATACACACATATACATACATACA
# DNA 2: TGTATGTATGTATATGTGTGTATATGAAATTACTTC
# B22: CACACA_site8689 (dsDNA)
# DNA 1: AAAAAAAAAACACGCGCACACACACCCACCCACCCA
# DNA 2: TGGGTGGGTGGGTGTGTGTGCGCGTGTTTTTTTTTT
# B23: CACACA_site2768 (dsDNA)
# DNA 1: TAGAACAAATAAAACACACACATATATATATATATG
# DNA 2: CATATATATATATATGTGTGTGTTTTATTTGTTCTA
# B24: CACACA_site7096 (dsDNA)
# DNA 1: TACCTATATACATACACACACATATAACCAATGTAG
# DNA 2: CTACATTGGTTATATGTGTGTGTATGTATATAGGTA
# B25: CACACA_site8191 (dsDNA)
# DNA 1: TATTATATTATACATACACACCCATATAATATGTTT
# DNA 2: AAACATATTATATGGGTGTGTATGTATAATATAATA
# B26: CACACA_site478 (dsDNA)
# DNA 1: AAAAAAAAAAAAAAAACACACAAATCATAAATAAAT
# DNA 2: ATTTATTTATGATTTGTGTGTTTTTTTTTTTTTTTT
# B27: CACACA_site3328 (dsDNA)
# DNA 1: TGTATTTATAGCAATACACACATAACAATAAATATA
# DNA 2: TATATTTATTGTTATGTGTGTATTGCTATAAATACA
# B28: CACACA_site2604 (dsDNA)
# DNA 1: GAAAATATTACATACACGCACACATTAATATATTTA
# DNA 2: TAAATATATTAATGTGTGCGTGTATGTAATATTTTC
# B29: CACACA_site1962 (dsDNA)
# DNA 1: TTTTTAACATATCATACACACAACAACTTTTTATAG
# DNA 2: CTATAAAAAGTTGTTGTGTGTATGATATGTTAAAAA
# B30: CACACA_site2544 (dsDNA)
# DNA 1: TATTATTTATTATATGCACACATCGAACTATTATTT
# DNA 2: AAATAATAGTTCGATGTGTGCATATAATAAATAATA
# B31: CACACA_site5943 (dsDNA)
# DNA 1: AAATAAATATATAATACACACAAAAATATAAAATGG
# DNA 2: CCATTTTATATTTTTGTGTGTATTATATATTTATTT
# B32: CACACA_site1730 (dsDNA)
# DNA 1: AAAATTTTTTACTTTACACACATTTTGTATATTTTG
# DNA 2: CAAAATATACAAAATGTGTGTAAAGTAAAAAATTTT
# B33: CACACA_site3144 (dsDNA)
# DNA 1: ATAAAATATATGAAGACACACATAACATCATATTTT
# DNA 2: AAAATATGATGTTATGTGTGTCTTCATATATTTTAT
# B34: CACACA_site8579 (dsDNA)
# DNA 1: AATATTTATAAATTTACACACACACCGGTGAACATA
# DNA 2: TATGTTCACCGGTGTGTGTGTAAATTTATAAATATT
# B35: CACACA_site4960 (dsDNA)
# DNA 1: TTAATAACAAAATAAACACACATATATAAATACCCA
# DNA 2: TGGGTATTTATATATGTGTGTTTATTTTGTTATTAA
# B36: CACACA_site5414 (dsDNA)
# DNA 1: AACAAGTTGCATGGTGCACACATGTATTTATATCTA
# DNA 2: TAGATATAAATACATGTGTGCACCATGCAACTTGTT
# B37: CACACA_site2985 (dsDNA)
# DNA 1: AATATTTATAAAGACACACAAACAAAAAGGATAAAA
# DNA 2: TTTTATCCTTTTTGTTTGTGTGTCTTTATAAATATT
# B38: CACACA_site8576 (dsDNA)
# DNA 1: TTCTTACATAAAATATCACACACATAAAAAAACAAT
# DNA 2: ATTGTTTTTTTATGTGTGTGATATTTTATGTAAGAA
# B39: CACACA_site2478 (dsDNA)
# DNA 1: TAAACAGACATATAAACACACATATAAACCGACATA
# DNA 2: TATGTCGGTTTATATGTGTGTTTATATGTCTGTTTA
# B40: CACACA_site4786 (dsDNA)
# DNA 1: AATATACACCCGTGTACACAAATATTTACAAAACGT
# DNA 2: ACGTTTTGTAAATATTTGTGTACACGGGTGTATATT
# B41: CACACA_site7392 (dsDNA)
# DNA 1: GGTTCATATCTTAACACACACATACATATTATAGAT
# DNA 2: ATCTATAATATGTATGTGTGTGTTAAGATATGAACC
# B42: CACACA_site55 (dsDNA)
# DNA 1: CTCAATATTATTACTACACACAAATTAATATTTTCC
# DNA 2: GGAAAATATTAATTTGTGTGTAGTAATAATATTGAG
# B43: CACACA_site4213 (dsDNA)
# DNA 1: GGAATAGTAATATATACACACAAATACAGATATATA
# DNA 2: TATATATCTGTATTTGTGTGTATATATTACTATTCC
# B44: CACACA_site2997 (dsDNA)
# DNA 1: CATAATTATGCAATTGCACACAACTATCATTTTTTT
# DNA 2: AAAAAAATGATAGTTGTGTGCAATTGCATAATTATG
# Target: T1, PF3D7_0420300 D1 (Plasmodium falciparum, UniProt Q8I1N6 1956-2015)
# T1 sequence: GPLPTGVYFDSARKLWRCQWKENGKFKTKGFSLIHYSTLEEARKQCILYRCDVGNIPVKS
# Test: gcPBM; about 25 ug protein; PBS, 1% milk, 0.2 mg/ml BSA, salmon testes DNA, 0.03% Triton X-100
# Details: tags: N-terminal GST (pGEX-4T-1), kept; label: surface-attached array probe
row,Binder,binding signal
1,B1,"9.58 ln median PBM intensity, better of two orientations"
2,B2,"9.63 ln median PBM intensity, better of two orientations"
3,B3,"9.87 ln median PBM intensity, better of two orientations"
4,B4,"9.5 ln median PBM intensity, better of two orientations"
5,B5,"9.94 ln median PBM intensity, better of two orientations"
6,B6,"9.93 ln median PBM intensity, better of two orientations"
7,B7,"10.8 ln median PBM intensity, better of two orientations"
8,B8,"9.86 ln median PBM intensity, better of two orientations"
9,B9,"9.58 ln median PBM intensity, better of two orientations"
10,B10,"9.83 ln median PBM intensity, better of two orientations"
11,B11,"9.89 ln median PBM intensity, better of two orientations"
12,B12,"9.6 ln median PBM intensity, better of two orientations"
13,B13,"9.85 ln median PBM intensity, better of two orientations"
14,B14,"9.49 ln median PBM intensity, better of two orientations"
15,B15,"9.55 ln median PBM intensity, better of two orientations"
16,B16,"9.85 ln median PBM intensity, better of two orientations"
17,B17,"9.86 ln median PBM intensity, better of two orientations"
18,B18,"9.57 ln median PBM intensity, better of two orientations"
19,B19,"9.91 ln median PBM intensity, better of two orientations"
20,B20,"9.51 ln median PBM intensity, better of two orientations"
21,B21,"9.62 ln median PBM intensity, better of two orientations"
22,B22,"10.7 ln median PBM intensity, better of two orientations"

row,Binder,binding signal
1,B23,"9.9 ln median PBM intensity, better of two orientations"
2,B24,"9.88 ln median PBM intensity, better of two orientations"
3,B25,"9.49 ln median PBM intensity, better of two orientations"
4,B26,"9.63 ln median PBM intensity, better of two orientations"
5,B27,"9.56 ln median PBM intensity, better of two orientations"
6,B28,"9.59 ln median PBM intensity, better of two orientations"
7,B29,"9.54 ln median PBM intensity, better of two orientations"
8,B30,"9.56 ln median PBM intensity, better of two orientations"
9,B31,"9.84 ln median PBM intensity, better of two orientations"
10,B32,"9.87 ln median PBM intensity, better of two orientations"
11,B33,"9.52 ln median PBM intensity, better of two orientations"
12,B34,"9.89 ln median PBM intensity, better of two orientations"
13,B35,"9.9 ln median PBM intensity, better of two orientations"
14,B36,"9.53 ln median PBM intensity, better of two orientations"
15,B37,"9.84 ln median PBM intensity, better of two orientations"
16,B38,"9.93 ln median PBM intensity, better of two orientations"
17,B39,"9.92 ln median PBM intensity, better of two orientations"
18,B40,"9.51 ln median PBM intensity, better of two orientations"
19,B41,"9.92 ln median PBM intensity, better of two orientations"
20,B42,"9.54 ln median PBM intensity, better of two orientations"
21,B43,"9.83 ln median PBM intensity, better of two orientations"
22,B44,"9.61 ln median PBM intensity, better of two orientations"
